This experiment concerns the target T1, raccoon dog transferrin receptor ectodomain (recombinant RDTfR, from residue 121, C-terminal 6x His) (raccoon dog).
T1 construct: transferrin receptor type 1 of the raccoon dog, ectodomain starting at amino acid residue 121 of XM_055316305; Cloned with the N-terminal signal peptide GP67; also called recombinant RDTfR protein; purified RDTfR; source: Sf9 cells (pFastBacI-RDTfR), purified (Ni-NTA, dialysed in PBS); not shown: His6, C-terminal, kept
The experiment can be described thus: BLI; virus immobilised on APS probe (Gator Prime), PBS as running buffer; three concentrations (serial dilutions) of RDTfR in PBST (PBS, 0.05% Tween-20) applied; global fit, 1:1 binding model. The note with it: both partners purified. For orientation: In BLI a coated tip is dipped into the sample, and binding shifts an interference pattern.

Experimental findings from article PMC12548415 (Journal of Virology, 2025) are described below.

B1: rRDPV-10 virus (rescued from the infectious cDNA clone pRDPV-10 of raccoon dog parvovirus strain RDPV/FLD/2010), capsid of VP2 (complex)
chain: MSDGAVQPDGGQPAVRNERATGSGNGSGGGGGGGSGGVGISTGTFNNQTEFKFLENGWVEITANSSRLVHLNMPESENYRRVVVNNMDKTAVNGNMALDDIHAQIVTPWSLVDANAWGVWFNPGDWQLIVNTMSELHLVSFEQEIFNVVLKTVSESATQPPTKVYNNDLTASLMVALDSNNTMPFTPAAMRSETLGFYPWKPTIPTPWRYYFQWDRTLIPSHTGTSGTPTNIYHGTDPDDVQFYTIENSVPVHLLRTGDEFATGTFFFDCKPCRLTHTWQTNRALGLPPFLNSLPQSEGATNFGDIGVQQDKRRGVTQMGNTNYITEATIMRPAEVGYSAPYYSFEASTQGPFKTPIAAGRGGAQTDENQAADGNPRYAFGRQHGQKTTTTGETPERFTYIAHQDTGRYPEGDWIQNINFNLPVTNDNVLLPTDPIGGKTGINYTNIFNTYGPLTALNNVPPVYPNGQIWDKEFDTDLKPRLHVNAPFVCQNNCPGQLFVKVAPNLTNEYDPDASANMSRIVTYSDFWWKGKLVFKAKLRASHTWNPIQQMSINVDNQFNYVPSNIGGMKIVYEKSQLAPRKLY
As to B1, the Kd (in general, the concentration at which binding is half-saturated) is 137 nM; the dissociation rate constant (koff) (as a rule, the rate constant with which the complex falls apart) amounted to 0.0071 s⁻¹; the kon – broadly, a measure of how fast the partners come together – came out at 51800 M⁻¹ s⁻¹.
